Data published in the RNAGym collection of RNA variant scans (doi:10.7554/elife.80360).

B1: HDV Ribozyme (parent)
chain: GGCCGGCAUGGUCCCAGCCUCCUCGCUGGCGCCGGCUGGGCAACAUUCCGAGGGGACCGUCCCCUCGGUAAUGGCGAAUGGGACCCA

Variants of: B1
Experiment: self-cleavage, relative activity (ratio to wild type); higher = more cleavage; co-transcriptional

Variant | self-cleavage
GGCCGGCAUGGUGCAAGCCUCCUCGCUGGCGCCGGCUGGGCAACAUUCCGAGGGGACCGUCCCCUCGGUAAUGGCGAAUGGGACCCA [C13G C15A] | 0.128
GGCCGGCAUGGUGCUAGCCUCCUCGCUGGCGCCGGCUGGGCAACAUUCCGAGGGGACCGUCCCCUCGGUAAUGGCGAAUGGGACCCA [C13G C15U] | 0
GGCCGGCAUGGUGCCAGCCUCCUCGCUGGCGCCGGCUGGGCAACAUUCCGAGGGGACCGUCCCCUCGGUACUGGCGAAUGGGACCCA [C13G A71C] | 0
GGCCGGCAUGGUGCCAGACUCCUCGCUGGCGCCGGCUGGGCAACAUUCCGAGGGGACCGUCCCCUCGGUAAUGGCGAAUGGGACCCA [C13G C18A] | 0.0831
GGCCGGCAUGGUACCAGCCUCCUCGCUGGCGCCGGCUGGGCAACAUCCCGAGGGGACCGUCCCCUCGGUAAUGGCGAAUGGGACCCA [C13A U47C] | 0.277
GGCCGGCAUGGUACCAGCCUCCUCGCUGGCGCCGGCUGGGCAACAUACCGAGGGGACCGUCCCCUCGGUAAUGGCGAAUGGGACCCA [C13A U47A] | 0.148
GGCCGGCAUGGUACCAGCCUCCUCGCUGGCGCCGGCUGGGCAACAUGCCGAGGGGACCGUCCCCUCGGUAAUGGCGAAUGGGACCCA [C13A U47G] | 0.138
GGCCGGCAUGGUACCAGCCUCCUCGCUGGCGCCGGCUGGGCAACAUUCCGAGGGGACCGUCCCCUCGGAAAUGGCGAAUGGGACCCA [C13A U69A] | 0.277
GGCCGGCAUGGUACCAGCCUCCUCGCUGGCGCCGGCUGGGCAACAUUCCGAGGGGACCGUCCCCUCGGCAAUGGCGAAUGGGACCCA [C13A U69C] | 0.111
GGCCGGCAUGGUACCAGCCUCCUCGCUGGCGCCGGCUGGGCAACAUUCCGAGGGGACCGUCCCCUCGGUAAUGUCGAAUGGGACCCA [C13A G74U] | 0.0443
GGCCGGCAUGGUGCCAGCCUCCUCGCUGGCGCCGGCUGGGCAACAUUCCGAGGGGACCGUCCCCUCGGUAAUGGCGAAUGGGACCCC [C13G A87C] | 0
GGCCGGCAUGGUGCCAGCCUCCUCGCUGGCGCCGGCUGGGCAACAUUCCGAGGGGACCGUCCCCUCGGUAAUGGCGAAUGGGACCCG [C13G A87G] | 0.0903
GGCCGGCAUGGUGCCAGCCUCCUCGCUGGCGCCGGCUGGGCAACAUUCCGUGGGGACCGUCCCCUCGGUAAUGGCGAAUGGGACCCA [C13G A51U] | 0
GGCCGGCAUGGUGCCAGCCUCCUCGCUGGCGCCGGCUGGGCAACAUUCCGGGGGGACCGUCCCCUCGGUAAUGGCGAAUGGGACCCA [C13G A51G] | 0.123
GGCCGGCAUGGUGCCAGCCUCUUCGCUGGCGCCGGCUGGGCAACAUUCCGAGGGGACCGUCCCCUCGGUAAUGGCGAAUGGGACCCA [C13G C22U] | 0
GGCCGGCAUGGUGCCAGCCUCCUCGCUGGCGCCGGCUGGGAAACAUUCCGAGGGGACCGUCCCCUCGGUAAUGGCGAAUGGGACCCA [C13G C41A] | 0.0489

Variant | self-cleavage
GGCCGGCAUGGUGACAGCCUCCUCGCUGGCGCCGGCUGGGCAACAUUCCGAGGGGACCGUCCCCUCGGUAAUGGCGAAUGGGACCCA [C13G C14A] | 0
GGCCGGCAUGGUGUCAGCCUCCUCGCUGGCGCCGGCUGGGCAACAUUCCGAGGGGACCGUCCCCUCGGUAAUGGCGAAUGGGACCCA [C13G C14U] | 0.208
GGCCGGCAUGGUGCCAGCCUCCUCGCUGGCGACGGCUGGGCAACAUUCCGAGGGGACCGUCCCCUCGGUAAUGGCGAAUGGGACCCA [C13G C32A] | 0.0875
GGCCGGCAUGGUGCCAGCCUCCUCGCUGGCGUCGGCUGGGCAACAUUCCGAGGGGACCGUCCCCUCGGUAAUGGCGAAUGGGACCCA [C13G C32U] | 0.0437
GGCCGGCAUGGUACCAGCCUCCUCGCUGGCGCCGGCUGGGCAACAUUCCGAGGGGACCGUCCCCUCGGUAAUGGCGAAUAGGACCCA [C13A G80A] | 0.106
GGCCGGCAUGGUACCAGCCUCCUCGCUGGCGCCGGCUGGGCAACAUUCCGAGGGGACCGUCCCCUCGGUAAUGGCGAAUCGGACCCA [C13A G80C] | 0.125
GGCCGGCAUGGUGCCAGCCUCCUCGCUGGCGCCGGCUGGGCAACAUUCCGAGGGGUCCGUCCCCUCGGUAAUGGCGAAUGGGACCCA [C13G A56U] | 0
GGCCGGCAUGGUGCCAGCCUCCUCGCUGGCGCUGGCUGGGCAACAUUCCGAGGGGACCGUCCCCUCGGUAAUGGCGAAUGGGACCCA [C13G C33U] | 0.0475
GGCCGGCAUGGUACCAGCCUCCUCGCUGGCGCCGGCUGGGCAACAUUCCGAGGGGACCGUCCCCUCGGUAAUGGCUAAUGGGACCCA [C13A G76U] | 0.317
GGCCGGCAUGGUACCAGCCUCCUCGCUGGCGCCGGCUGGGCAACAUUCCGAGGGGACCGUCCCCUCGCUAAUGGCGAAUGGGACCCA [C13A G68C] | 0.151
GGCCGGCAUGGUACCAGCCUCCUCGCUGGCGCCGGCUGGGCAACAUUCCGAGGGGACCGUCCCCUCGAUAAUGGCGAAUGGGACCCA [C13A G68A] | 0.187
GGCCGGCAUGGUGCCAGCCUCCUCGCUGGCGCCGGCUGGGCAGCAUUCCGAGGGGACCGUCCCCUCGGUAAUGGCGAAUGGGACCCA [C13G A43G] | 0.133
GGCCGGCAUGGUGCCAGCCUCCUCGCUGGCGCCGGCUGGGCAACAUUCCGAGGGGACCGUCCCCUCGGUGAUGGCGAAUGGGACCCA [C13G A70G] | 0.229
GGCCGGCAUGGUGCCAGCCUCCUCGCUGGCGCCGGCUGGGCAACAUUCCGAGGGGACCGUCCCCUCGGUCAUGGCGAAUGGGACCCA [C13G A70C] | 0
GGCCGGCAUGGUACCAGCCUCCUCGCUGGCGCCGGCUGGGCAACAUUCCGAGGGGACCGUCCCCUCGGUAAAGGCGAAUGGGACCCA [C13A U72A] | 0
GGCCGGCAUGGUACCAGCCUCCUCGCUGGCGCCGGCUGGGCAACAUUCCGAGGGGACCGUCCCCUCGGUAACGGCGAAUGGGACCCA [C13A U72C] | 0.0573
